{
  "source": "patent US20120213761",
  "molecular_target": "T1, tumor necrosis factor receptor-associated factor 2 (TRAF2), endogenous, in human cardiac tissue, Q12933",
  "T1 chain": "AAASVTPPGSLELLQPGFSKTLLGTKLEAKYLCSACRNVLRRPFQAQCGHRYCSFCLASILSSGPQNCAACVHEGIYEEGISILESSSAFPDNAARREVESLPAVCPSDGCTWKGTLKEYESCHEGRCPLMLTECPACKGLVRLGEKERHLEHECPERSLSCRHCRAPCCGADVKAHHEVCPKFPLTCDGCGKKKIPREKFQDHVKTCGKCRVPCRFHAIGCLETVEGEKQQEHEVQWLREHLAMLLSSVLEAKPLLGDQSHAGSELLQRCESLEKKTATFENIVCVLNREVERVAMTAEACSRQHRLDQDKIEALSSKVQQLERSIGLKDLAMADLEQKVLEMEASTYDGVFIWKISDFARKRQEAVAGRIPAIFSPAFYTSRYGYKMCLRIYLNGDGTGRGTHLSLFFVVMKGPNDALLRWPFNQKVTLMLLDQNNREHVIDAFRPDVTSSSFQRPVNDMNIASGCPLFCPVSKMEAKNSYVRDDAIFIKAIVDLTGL",
  "data": [
    {"protein": "recombinant GSTP1 (Assay Design, Ann Arbor, Mich.) (protein) PPYTVVYFPVRGRCAALRMLLADQGQSWKEEVVTVETWQEGSLKASCLYGQLPKFQDGDLTLYQSNTILRHLGRTLGLYGKDQQEAALVDMVNDGVEDLRCKYISLIYTNYEAGKDDYVKALPGQLKPFETLLSQNQGGKTFIVGDQISFADYNLLDLLLIHEVLAPGCLDAFPLLSAYVGRLSARPKLKAFLASPEYVNLPINGNGKQ", "values": [
      {"measurement": "JNK1 and p38 activation (active JNK / active p38 protein, Western blot) in cardiac tissue cultures", "value": "acts as a negative regulator of JNK1 and p38 activation"},
      {"measurement": "TNF-α-induced JNK and p38 activation in DCM cardiac tissue cultures (Western blot)", "value": "higher GSTP1 concentrations inhibit TNF-α-induced JNK and p38 activation in DCM"}
    ]}
  ]
}
